From patent US20210000909A1 come the findings set out here.

The target of the test is PDZ1/2 domain, P78352.
Sequence of PDZ1/2 domain, P78352 (P78352 61-249 limits assumed): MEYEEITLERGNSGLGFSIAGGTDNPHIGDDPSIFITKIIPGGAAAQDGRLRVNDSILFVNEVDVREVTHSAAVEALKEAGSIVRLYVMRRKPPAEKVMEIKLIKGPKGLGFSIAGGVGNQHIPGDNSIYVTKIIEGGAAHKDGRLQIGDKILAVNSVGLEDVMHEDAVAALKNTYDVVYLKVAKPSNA

B1: chimeric peptide YE-NA-1 (peptide)
peptide: YGRKKRRQRRRYEKLSSIESDV
modifications: not checked
B1: the dissociation constant Kd was 54.4 nM.

As a reminder, the Kd is the constant that tells how readily two partners part at equilibrium.
